The values below are quoted from earlier work in patent publication US20160258855A1, “Methods and Apparatus to Determine Diffusion Properties of Porous Structures for Drug Delivery” (ForSight Vision4, Inc., priority 2010, published 2016).

Like-named read-outs stand apart in the source and are kept apart here.

The conditions of data set [1]: rabbit eye, intravitreal, cited from earlier work.
The conditions of data set [2]: human eye, intravitreal, cited from earlier work.
The conditions of data set [3]: monkey eye, intravitreal, cited from earlier work.

With ranibizumab [Lucentis], the half-life in vitreous entry was “two to four” in data set [1]; “approximately 3 days” in data set [1] (listed as ranibizumab); “about nine” in data set [2]; roughly 220 h in data set [2] (listed as ranibizumab); “two to four” in data set [3]; “approximately 3 days” in data set [3] (listed as ranibizumab).
